Starred links: 1 amine or outer side, 2 acyl side, 3 side chain; linkers in the order of their positions; H or OH if unused. Non-standard residues stand in square brackets, D forms with d. Groups on a side chain read outwards from the residue. Primed or numbered codes have the meaning given here. No end group written: not given here. *: point of attachment. γGlu = O=C(O)[C@H](CCC(=O)[*:2])N[*:1]; Stearoyl = CCCCCCCCCCCCCCCCCC(=O)*; αMeF = C[C@](N)(Cc1ccccc1)C(=O)O; αMeK = C[C@](N)(CCCCN)C(=O)O; Lauroyl = CCCCCCCCCCCC(=O)*; αMeS = C[C@](N)(CO)C(=O)O; PEG2′ = not defined here; Aib = CC(C)(N)C(=O)O
B1: SEQ ID NO 118 (peptide)
peptide: H[Aib]EGS[αMeF]TSDVK([PEG2′-PEG2′-γGlu-Stearoyl])S[αMeF]LEGEAA[αMeK]E[αMeF]IA[αMeF]VV[αMeK]GG-NH2
B2: SEQ ID NO 119 (peptide)
peptide: H[Aib]EGS[αMeF]TSDK([PEG2′-PEG2′-γGlu-Stearoyl])[αMeS]S[αMeF]LEGEAA[αMeK]E[αMeF]IA[αMeF]VV[αMeK]GG-NH2
B3: SEQ ID NO 120 (peptide)
peptide: H[Aib]EGS[αMeF]TSK([PEG2′-PEG2′-γGlu-Stearoyl])V[αMeS]S[αMeF]LEGEAA[αMeK]E[αMeF]IA[αMeF]VV[αMeK]GG-NH2
B4: SEQ ID NO 121 (peptide)
peptide: H[Aib]EGS[αMeF]TK([PEG2′-PEG2′-γGlu-Stearoyl])DV[αMeS]S[αMeF]LEGEAA[αMeK]E[αMeF]IA[αMeF]VV[αMeK]GG-NH2
B5: SEQ ID NO 122 (peptide)
peptide: H[Aib]EGS[αMeF]K([PEG2′-PEG2′-γGlu-Stearoyl])SDV[αMeS]S[αMeF]LEGEAA[αMeK]E[αMeF]IA[αMeF]VV[αMeK]GG-NH2
B6: SEQ ID NO 123 (peptide)
peptide: H[Aib]EGSK([PEG2′-PEG2′-γGlu-Stearoyl])TSDV[αMeS]S[αMeF]LEGEAA[αMeK]E[αMeF]IA[αMeF]VV[αMeK]GG-NH2
B7: SEQ ID NO 124 (peptide)
peptide: H[Aib]EGK([PEG2′-PEG2′-γGlu-Stearoyl])[αMeF]TSDV[αMeS]S[αMeF]LEGEAA[αMeK]E[αMeF]IA[αMeF]VV[αMeK]GG-NH2
B8: SEQ ID NO 125 (peptide)
peptide: H[Aib]EK([PEG2′-PEG2′-γGlu-Stearoyl])S[αMeF]TSDV[αMeS]S[αMeF]LEGEAA[αMeK]E[αMeF]IA[αMeF]VV[αMeK]GG-NH2
B9: SEQ ID NO 126 (peptide)
peptide: H[Aib]K([PEG2′-PEG2′-γGlu-Stearoyl])GS[αMeF]TSDV[αMeS]S[αMeF]LEGEAA[αMeK]E[αMeF]IA[αMeF]VV[αMeK]GG-NH2
B10: SEQ ID NO 127 (peptide)
peptide: HK([PEG2′-PEG2′-γGlu-Stearoyl])EGS[αMeF]TSDV[αMeS]S[αMeF]LEGEAA[αMeK]E[αMeF]IA[αMeF]VV[αMeK]GG-NH2
B11: SEQ ID NO 128 (peptide)
peptide: H[Aib]EGS[αMeF]TSDV[αMeS]S[αMeF]LEGEAAK([γGlu-Lauroyl])E[αMeF]IA[αMeF]VV[αMeK]GG-NH2
modifications: N-terminus assumed
SMILES: CCCCCCCCCCCC(=O)N[C@@H](CCC(=O)NCCCC[C@H](NC(=O)[C@H](C)NC(=O)[C@H](C)NC(=O)[C@H](CCC(=O)O)NC(=O)CNC(=O)[C@H](CCC(=O)O)NC(=O)[C@H](CC(C)C)NC(=O)[C@](C)(Cc1ccccc1)NC(=O)[C@H](CO)NC(=O)[C@](C)(CO)NC(=O)[C@@H](NC(=O)[C@H](CC(=O)O)NC(=O)[C@H](CO)NC(=O)[C@@H](NC(=O)[C@](C)(Cc1ccccc1)NC(=O)[C@H](CO)NC(=O)CNC(=O)[C@H](CCC(=O)O)NC(=O)C(C)(C)NC(=O)[C@@H](N)Cc1c[nH]cn1)[C@@H](C)O)C(C)C)C(=O)N[C@@H](CCC(=O)O)C(=O)N[C@@](C)(Cc1ccccc1)C(=O)N[C@H](C(=O)N[C@@H](C)C(=O)N[C@@](C)(Cc1ccccc1)C(=O)N[C@H](C(=O)N[C@H](C(=O)N[C@@](C)(CCCCN)C(=O)NCC(=O)NCC(N)=O)C(C)C)C(C)C)[C@@H](C)CC)C(=O)O
B12: SEQ ID NO 129 (peptide)
peptide: H[Aib]EGS[αMeF]TSDV[αMeS]S[αMeF]LEGEAAK([γGlu-γGlu-Lauroyl])E[αMeF]IA[αMeF]VV[αMeK]GG-NH2
modifications: N-terminus assumed
SMILES: CCCCCCCCCCCC(=O)N[C@@H](CCC(=O)N[C@@H](CCC(=O)NCCCC[C@H](NC(=O)[C@H](C)NC(=O)[C@H](C)NC(=O)[C@H](CCC(=O)O)NC(=O)CNC(=O)[C@H](CCC(=O)O)NC(=O)[C@H](CC(C)C)NC(=O)[C@](C)(Cc1ccccc1)NC(=O)[C@H](CO)NC(=O)[C@](C)(CO)NC(=O)[C@@H](NC(=O)[C@H](CC(=O)O)NC(=O)[C@H](CO)NC(=O)[C@@H](NC(=O)[C@](C)(Cc1ccccc1)NC(=O)[C@H](CO)NC(=O)CNC(=O)[C@H](CCC(=O)O)NC(=O)C(C)(C)NC(=O)[C@@H](N)Cc1c[nH]cn1)[C@@H](C)O)C(C)C)C(=O)N[C@@H](CCC(=O)O)C(=O)N[C@@](C)(Cc1ccccc1)C(=O)N[C@H](C(=O)N[C@@H](C)C(=O)N[C@@](C)(Cc1ccccc1)C(=O)N[C@H](C(=O)N[C@H](C(=O)N[C@@](C)(CCCCN)C(=O)NCC(=O)NCC(N)=O)C(C)C)C(C)C)[C@@H](C)CC)C(=O)O)C(=O)O
B13: SEQ ID NO 130 (peptide)
peptide: H[Aib]EGS[αMeF]TSDV[αMeS]S[αMeF]LEGEAAK([γGlu-γGlu-γGlu-Lauroyl])E[αMeF]IA[αMeF]VV[αMeK]GG-NH2
modifications: N-terminus assumed
SMILES: CCCCCCCCCCCC(=O)N[C@@H](CCC(=O)N[C@@H](CCC(=O)N[C@@H](CCC(=O)NCCCC[C@H](NC(=O)[C@H](C)NC(=O)[C@H](C)NC(=O)[C@H](CCC(=O)O)NC(=O)CNC(=O)[C@H](CCC(=O)O)NC(=O)[C@H](CC(C)C)NC(=O)[C@](C)(Cc1ccccc1)NC(=O)[C@H](CO)NC(=O)[C@](C)(CO)NC(=O)[C@@H](NC(=O)[C@H](CC(=O)O)NC(=O)[C@H](CO)NC(=O)[C@@H](NC(=O)[C@](C)(Cc1ccccc1)NC(=O)[C@H](CO)NC(=O)CNC(=O)[C@H](CCC(=O)O)NC(=O)C(C)(C)NC(=O)[C@@H](N)Cc1c[nH]cn1)[C@@H](C)O)C(C)C)C(=O)N[C@@H](CCC(=O)O)C(=O)N[C@@](C)(Cc1ccccc1)C(=O)N[C@H](C(=O)N[C@@H](C)C(=O)N[C@@](C)(Cc1ccccc1)C(=O)N[C@H](C(=O)N[C@H](C(=O)N[C@@](C)(CCCCN)C(=O)NCC(=O)NCC(N)=O)C(C)C)C(C)C)[C@@H](C)CC)C(=O)O)C(=O)O)C(=O)O

Columns and labels:
Experiment in all cases: cell-based or functional assay
[1] = target: T1, glucose-dependent insulinotropic peptide (gastric inhibitory polypeptide) receptor (GIPR) (human, UniProt P48546 22-466)
T1 sequence (looked up): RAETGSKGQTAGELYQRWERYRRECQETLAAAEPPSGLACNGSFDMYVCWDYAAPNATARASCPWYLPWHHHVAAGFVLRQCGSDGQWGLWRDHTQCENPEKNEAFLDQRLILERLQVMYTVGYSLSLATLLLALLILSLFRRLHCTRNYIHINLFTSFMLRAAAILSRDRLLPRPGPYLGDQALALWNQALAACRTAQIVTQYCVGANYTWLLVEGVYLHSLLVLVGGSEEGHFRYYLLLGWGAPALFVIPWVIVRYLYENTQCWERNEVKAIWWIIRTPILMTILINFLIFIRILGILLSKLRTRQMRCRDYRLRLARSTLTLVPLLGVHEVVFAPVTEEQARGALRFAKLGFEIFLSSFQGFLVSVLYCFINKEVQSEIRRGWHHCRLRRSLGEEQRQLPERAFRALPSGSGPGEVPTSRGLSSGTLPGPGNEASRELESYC

[2] = target: glucagon receptor (GCGR) (human, UniProt P47871 26-477)
glucagon receptor (GCGR), sequence (P47871 26-477): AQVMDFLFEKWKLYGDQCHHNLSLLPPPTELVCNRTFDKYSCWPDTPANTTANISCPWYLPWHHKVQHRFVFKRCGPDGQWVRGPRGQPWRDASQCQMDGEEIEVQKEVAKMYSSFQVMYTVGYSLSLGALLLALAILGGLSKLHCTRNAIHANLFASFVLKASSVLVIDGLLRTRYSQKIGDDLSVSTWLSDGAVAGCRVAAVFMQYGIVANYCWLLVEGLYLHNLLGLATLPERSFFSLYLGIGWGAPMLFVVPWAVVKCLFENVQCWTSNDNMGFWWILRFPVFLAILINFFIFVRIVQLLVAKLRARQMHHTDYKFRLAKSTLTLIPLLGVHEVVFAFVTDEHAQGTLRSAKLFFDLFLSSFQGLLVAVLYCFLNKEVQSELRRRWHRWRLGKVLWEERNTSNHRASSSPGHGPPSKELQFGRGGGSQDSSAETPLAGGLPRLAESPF

[3] = target: GLP-1 receptor (GLP-1R) (human, UniProt P43220 24-463)

Binder	cAMP Primary assay EC50 GIP-R [1]	cAMP Primary assay EC50 GIP-R (2nd) [1]	cAMP Primary assay EC50 Gluc-R [2]	cAMP Primary assay EC50 Gluc-R (2nd) [2]	cAMP Mean pM GLP-1R [3]	cAMP Primary assay EC50 GLP-1R n1 [3]	cAMP Primary assay EC50 GLP-1R n2 [3]
B1	25 nM	25.2 nM	25 nM	25.2 nM	783 pM	0.81 nM	0.758 nM
B2	25 nM	25.2 nM	25 nM	25.2 nM	17 pM	0.018 nM	0.0157 nM
B3	25 nM	25.3 nM	25 nM	25.3 nM	3640 pM	4.1 nM	3.13 nM
B4	25 nM	25.1 nM	25 nM	25.1 nM	25100 pM	25 nM	25.1 nM
B5	25 nM	25.2 nM	25 nM	25.2 nM	25200 pM	25 nM	25.2 nM
B6	26 nM	25.6 nM	26 nM	25.6 nM	4660 pM	4.9 nM	4.43 nM
B7	25 nM	25.1 nM	25 nM	25.1 nM	25100 pM	25 nM	25.1 nM
B8	25 nM	24.9 nM	25 nM	24.9 nM	24900 pM	25 nM	24.9 nM
B9	25 nM	25.4 nM	25 nM	25.4 nM	25400 pM	25 nM	25.4 nM
B10	25 nM	25.1 nM	25 nM	25.1 nM	25100 pM	25 nM	25.1 nM
B11	28 nM	28 nM	28 nM	28 nM	18.2 pM	0.015 nM	0.021 nM
B12	27 nM	27 nM	27 nM	27 nM	11.5 pM	0.012 nM	0.011 nM
B13	26 nM	26 nM	26 nM	26 nM	14.4 pM	0.016 nM	0.013 nM
